From the DeepSol protein solubility set

Test: soluble on expression in E. coli; label from the status in PepcDB or PDB records

Soluble on expression in E. coli, not soluble:
MGSDKIHHHHHHMNKHFTFTINSICLDENYHPSDKTRITTNFANLARGSHRQANLRNALKMIDNSFNALAHWDNPKGDRYSVELEIISVNLDIDGSGQTFPSIEVLKTNIVDHKTNKRIEGIVGNNFSSYVRDYDFSVLLAEHNKGQAKFSIPDDFGGLHGKLFQSFVNSDAYKQNFNKPPVICLSVSDNKTYHRIENQHPVLGVEYQPNESSLTEQYFKKMGLQVRYFMPPNSVAPLAFYFFGDLLNDYTHLELISTISTMGTFQKIYRPEIYNANAVAGKCYQPNLKNLDHSLTQIVYDRAERSQLANEQGKFAAEHFIKPYQTFFEQWPANYL, MGSDKIHHHHHHMNKIINNILNTCKQYTYILPHKLLRQYIAHYTISIPDTSIKENLTLIPDASGCMIFKFDKKGIESAFWGATTKTTIVKNDIENVLFRVFVEFRPGGVYYLTGLSQRESTDLKISLEDFNTLFSLEVNSIFERTSTIKELVEQLDMLFLSYLLKSNIVDMTIPILENARKQNSIMSVKNISQISCYSERHLNRIFNNSLGMSVKSYLRLLRINLVLQEIQNNKIPFATLAQDIGYYDQSHFINDFKSICGVNPTTYIKNLSDFYNEKYKF, MGSDKIHHHHHHMNKQEITSKIKEITETGAVCGVDVYVCLKGEEQGFYIEKMISMNSLKDRIRSIALEIINTQYLQDEVVYCDILDVIDNKKAVYVLEQSDEYKPFALLNDDSMDEVFNFDEKDIGNVLGFLFKINLNSKKLFIYQQAYVGSRLQAKNNLRIIQKDNVFEIVDKEMLKIDKRGELLILDNTILVRNVKVLQDFFGFQVFVRNQAQSVISKLEELDIIGNIATLKEYQTGEKLTISKKLMKVKNSPVLAMDKDELINKIPLVPRYKNIIHIENGKIRTNTKKDVDNLMKLLNDDYVKSELTDMEYDSTSKTLLNSESQDE, MGSDKIHHHHHHMNKRNLLIAIPALCSGYLHGQTQPASPNVIYILMDDLGYGDIGCFGQDKIETPHIDRLCSEGIKLTQHYSGSPVSAPARCVLMTGMHSGHAQIRFNNELAERGAVNNYDSVYVHKELEGQFPLQANTMTIGRMMQQAGYTTGCFGKWGLGYPGSEGTPNKQGFDRFYGYNCQRQSHTYYPPFLYNDEERVYLSNKVTDPHRSPLDKGADPNDPASYAKYTQKEYANDLIFDELMGFVDANKRKPFFLMWTTPLPHVSLQAPERWVQHYVKKFGDEKPYTGQAGYLPCRYPHATYAAMISYFDEQIGQLIEKLKAEHLYENTLIVFTSDNGPTFNGGSDSPWFNSGGLFNSAYGWGKCFLHEGGIRVPAIITWPGKIKPGTQSDHICAFQDVMPTLAELAGITCPPTDGISFLPTLLGKKGKQKEHTYLYWEYPDPRIGNKAIRMGKWKGIITDIRKGNTQMQLYNLETDIREEHDVAAQHPDIVKRFERLMKEARNGPDF, MGSDKIHHHHHHMNLAGAQLTENELMRLTVSNIAQATSLPALIQEHGRWCCQRCGDRKPVQLPDGRFYCSACVSLGCLTNRDLLYRFEQPHRPVGDGLLTWHGTLTPAQQKASTALQTSVTAGADHLIWAVTGAGKTEMLFPTISQMVQQGKRVAIVSPRIDVIRELAPRLRTAFATTPIAVRYGGHFDQTDSDLVLATVHQLLRFHRAFDLIVVDEVDAFPMAGTPMLHRAVQGARRGPVVYLTATPDRPLKAAMRKGLMVSRLFRRFHGHPLPVPAIRLMNFKKLPSQLPPAIVKWVRDVVATGRSCLLFVPKISWAPQIAALVQRNGLRVAGVASTDRLRAEKITAFRQRQIQVLVTTTILERGVTVSKCAVGVVAAADRAFTASALVQIAGRAGRAADSADDPVVFFTDRYTLALLAAKRQIVMMNGR, MGSDKIHHHHHHMNLEEENTIFKPLYSLKHSPINAYFSKNSDDFVVRERPLYEFSGKGEHLILHINKKDLTTNEALKILSEASGVKIRDFGYAGLKDKQGSTFQYLSMPKKFESFLSNFSHPKLKILEIFTHENKLRIGHLKGNSFFIRLKKVLPSDALKLEQALMNLDKQGFANYFGYQRFGKFGDNYKEGLEILRGKKMKNVKMKEFLISAFQSELFNRYLSKRVELSHFANDFSEKELIQIYKISKEEAKELKKQEQFFKLLKGEVLGHYPFGKCFLCEDLSAELGRFKARDISAMGLLIGAKAYETGEGLALNLENEIFKDTLEFKAKMQGSRRFMWGYLEELKWRYDEEKAHFCIEFFLQKGSYATVVLEEILHKNLFE, MGSDKIHHHHHHMNLKKVVNEIRNFEGILRKIAIKDVVETFDFNDEDYEFDIIVDFGDDAAVIGIDGDNAILLAADGIWGKLLEADPWWAGYCSVLVNCKDIAAMGGKCVGMTNIISIKDKDICREVLKGVKDGVKKFGVPMVGGHTHPDAMCNVLDVSITGIAKKDCILRSDNAKIGDKIIFAYDLVGQIYKSFPLNWDTTTMKSKKLVRAQMDALVQIAENKLANSCKDISNPGAIGTLGMLLEVSRKGGVVDITKIPKPEEIDLIHWLKVYPGSGYVLTAKEENFKEIKDIFEDVEMTAEICGEVIAEKKLYITDGENKEVVFDFEKEFICGC, MGSDKIHHHHHHMNLKQITYFLAVAEAGQMTAAAKQLHMAQPPLSYQLKALEDELGVRLFERGSRGVRLTGSGQQFMTYAQQIVETVAAAENAARRSGEGEIGTLALGLTSSAGDVLPKQKLQAFNRRYPQVEFALYEDNTYGILDKLRRNILDLAIVRTPFNDDGLASCRLSSDHMIAVAAASQPLPATLTIPDLKQQPLIVYRRFSSLFKTTFAEYGITPIIAVLCDDARTALHWAQMGMGVALVPATMAALASQQSHLAVIDYEPWVTHMTLVWQPEALHNPLVARFVGQLSGGESEKYSK, MGSDKIHHHHHHMNLLSPSDPIVLSTAYLPPIQYFTKLLHPEGVLLETAENFVKQSYRNRCHIAGPEGMQPLTIPVEKSPSPKAPIRDIRISEHGNWRHLHLNALISSYGSAPFFDHYMTEIEPFYRHKYTFLWDFNLDLLSVCLEWLDISPLIMFTFEYVEDCPNDFRYSIRPKQAPEDESFRPRVYYRTFAHKYGFLPNLSIVDLIFHEGPSAIQTLKECIR, MGSDKIHHHHHHMNLPTAHPLIDEATLTIVVCHILDSKTATLGEWHSEAIAHHIINNVTAGLQRITGIANNGSEQLSWSVILKILHLQPENAGSIFNSSQDPTHWNYWQREALIYTSGMLDNLTGDLVAPRCFGITEPSANVVWLWLEDIQGSSGSTWTMERFGLAARHLGYLQGSYVMAQSLPYEPWLSRGWHRAWVSNIDNTALEAWREPAVWQHPLLKEIFSPDIGDRVMDLWSDRHILLDAVDKAPHTLCHFDITPNNLFSRHNPDGNDQTVLIDWSFVGYGVLGEDIINLVLDSVFLLFVNGSSLIPLEKLVLEGYLTGLRSAGWNGDERIVRFTYAALAALHFGLIAGRLLKLVQNESRHSWLEQRFGRTFDEIITSRAIAITHGLELADEARLLLPSLFVIN, MGSDKIHHHHHHMNLQQLAVFREVMETGSVSAAARNLGRTQPAVSASLKALEVNLGIALFEREGRRLVPVPEAHYLLSEAAEILARVNTTEMNLVGMRNRTRGSLSVVGMPGPSVYLLPDFVSRFGSKADDLKISLSTRSSPQILNLIAAQAFDVGFCDLGFCDMSAEDLNSSLYHTKTIMSDCLCALPAQHPLAGRAVIDARQLSGERMGVLAGTHSTNRDTRAAFEQAGAVFNPRVEAQYFIPLLRFVEAGQICTVLDPLSAETYKRMNGGEVGIWFARFLPSVRFGYSIVTPKQRPLSLLAQDFVDGWSDHVREIIADHS, MGSDKIHHHHHHMNLRGKMIVIKFGGSSLRSEFKSAVSLIKALSEEKDVVVVVSALKGITDLLEKYTDTFDSRYAVEVSKTYLEFGKRMGIDTSSLSPYLKQLFNPPDLPPQALRDYILSIGELLSAAMIAEKANGAVIFPWDLFVAHGSFGNGFIDIKKSKRNVKLVKEALESGKIPIIPGFIANLNGYRVTLGRGGSDYSAVALGVLLNSELVAIMSDVEGIFTADPKMIPYSLLIPYMSYDEILIASKYGMEAIQWKAAKLAKEYEALILFGRASDWRMGTVVSNSSSHMPLLSYDQGKLLVMNMDSEIPYEVVEEGEFWRVYRVPKRDSIKIIKELHRKIIYQENAQLLGRVKA, MGSDKIHHHHHHMNNKGKLAILFIDALPYFKSRNIGQILNLYRLIPGLGYSVNQHYELLYGKTPDDVGFFGEWSLGCSTKFDTIKFRFHKTIDSILWKLKLNLIRKGYRKIILRLEDMIPLGRRKYFLRKGTYAFRELAKEGFILYNTQFRGYIEELDRTLPRNEEKRMETMFNKMFNIAKNTDHPLLFTINIIDHIGHKYGPESPEYDYFLDLFAKKLLDLLIFLKENGFHVILFSDHGMSPYKAKVNLSDFEHYFGKFFGKYIVYFYDSLYFRAWIFDSFLYLEIEEFLNKLPGKILSSNDRKKFGVVHEEHGHVIFVLNEGFTFHPNYFGYSVMKGYHGYLPEFERQHGIAAFSRAFKIDNLFQGNPPKYLNSIDFSRIIKHILEANRNV, MGSDKIHHHHHHMNNLYPYGAPDSNLYARKQEEYDQQIAEAILAGIKREATAIELYRRLADEAPSEQHQHDIRQALENKQASLTQFTNAYRILTGQQPQLEVDDVSFYRFHEGLQKAYEIEVEGYEEYERSSALTENPHVQHAFWTALNTEYENTTRLYRSLHEEADHRVTDHGPRPFVVNIEDETKRNRAFRRALWTGDHLQVTLMSIQVGEDIGLEIHPHLDQFLRVEEGRGLVQMGHRQDNLHFQEEVFDDYAILIPAGTWHNVRNTGNRPLKLYSIYAPPQHPHGTVHETKAIAMAAEEHHHL, MGSDKIHHHHHHMNPADNILWGNIIKVHGVKGEVLVQVFSDDLTDYETLESVFVEIKQKQIPFFLSTFNFATQKRCILSFEDVTTVEQAKPLVGADIYIPVSKMAEADESRLSYQAIIGFEVMDTIQGKLGVISNFFQKTGQDLLMMDYQDAEILIPVTEEIVHSVDVKTKQVITTLPEGLIEIYLNEDASEPDAD, MGSDKIHHHHHHMNPNTVPPAARDVAWIKHALQTAIELEYSTLPLYLSAMFSLEVQNYTAYNAIRSIAMEEMVHMAIAANLLAALGGSPQFKPIQIAYPTTGLPGGAEPDLHVGLARYSKPQLKNFLRIETPGFLLRQLGRDEGYPTIAAFYESIRSAIARNANAVRAAVQAGGPANQVGDDIGFTTVTYKPGVDPVESFDAGIGEILQQGEGSGRGDVFAGNPFEDEESHYARFAELYYGARYQAPSPPVDFNPKNEPLFFGGPAIAAPVVVNTLAVPRDGYARILALDPERDTVESDLNAFDSGFSKILSTLDAVWNGPSSTSWKTLGAAVHGMVDLRVLSCFNIMRHAVPAAAVSQLAELYPDEIGFLRTYTDLSKPVFYGPRFVNVNGKQAS, MGSDKIHHHHHHMNQDRNKLLSKIAYLYYIENLNQSQIAAKLGIYRTSISRMLTEARNVGIVKIEIENFDTNMFKLENYVKEKYSLESLEIIPNEFDDTPTILSERISQVAAGVLRNLIDDNMKIGFSWGKSLSNLVDLIHSKSVRNVHFYPLAGGPSHIHAKYHVNTLIYEMSRKFHGECTFMNATIVQENKLLADGILQSRYFENLKNSWKDLDIAVVGIGDFSNKGKHQWLDMLTEDDFKELTKVKTVGEICCRFFDSKGKEVYENLQERTIAISLEDLKNIPQSLAVAYGDTKVSSILSVLRANLVNHLITDKNTILKVLEEDGDLTFREILGE, MGSDKIHHHHHHMNQIDRLLTIMQRLRDPENGCPWDKEQTFATIAPYTLEETYEVLDAIAREDFDDLRGELGDLLFQVVFYAQMAQEEGRFDFNDICAAISDKLERRHPHVFADSSAENSSEVLARWEQIKTEERAQKAQHSALDDIPRSLPALMRAQKIQKRCANVGFDWTTLGPVVDKVYEEIDEVMYEARQAVVDQAKLEEEMGDLLFATVNLARHLGTKAEIALQKANEKFERRFREVERIVAARGLEMTGVDLETMEEVWQQVKRQEIDL
